This sample holds only a part of the variants without activity.
B1: TPR 5TU (parent)
chain: GGAUCUUCUCGAUCUAACAAAAAAGACAAAUCUGCCACAAAGCUUGAGAGCAUCUUCGGAUGCAGAGGCGGCAGCCUUCGGUGGCGCGAUAGCGCCAACGUUCUCAACUAUGACACGCAAAACGCGUGCUCCGUUGAAUGGAGUUUAUCAUG

Variants of: B1
Assay: polymerase ribozyme fitness, log enrichment relative to wild type (log ratio); higher = more active; in vitro selection for triplet polymerase activity
Outline: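 After PCR construction and transcription, each subunit's mutant library from a heterodimeric triplet polymerase ribozyme was annealed with a biotinylated primer, the partner subunit and triplets. Incubation was frozen, at −7 °C, and extended constructs were gel-excised, bound to streptavidin beads and amplified by RT-PCR, in one selection round done in triplicate. Fitness is the logarithm of a genotype's enrichment divided by that of the wild type, from inverse-variance-weighted replicate averages of Illumina-sequenced inputs and outputs. The base of the logarithm is 2, and genotypes needed ≥10 input reads and ≥1 read per output.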

Variant	polymerase ribozyme fitness (log ratio)
C14U A19C C76U C99U	-3.03
C14U A17G G83A C108U	≤ -4.2
C14G C131U	-1.27
C14G G88U C93A C116G U144A	≤ -4.2
C14G A30G G46C C95U	-4.17
C14G A29G C54U C132G	≤ -4.2
C14G U127G	-4.18
C14G G88C A137U	≤ -4.2
C14U A23C	≤ -4.2
C14G A39U U55G C95U	≤ -4.2
C14G A23U A28C A40G G42C A89U C116G G124C U134G	≤ -4.2
C14U A17U A24U C76A C85U	-3.79
C14G A28G C51U A52U G88A U109G	≤ -4.2
C14U A20U A24U G42A A49C C57A A60C U104G C114A A115C	≤ -4.2
C14G G92U	-2.61
C14G C32G	-4.17
C14U A29U G71A G88C C93A	≤ -4.2
C14G U102A	-4.05
C14G C43A G88U A110U G112C U127G	≤ -4.2
C14G C18U A52G G81U G92A C131G	≤ -4.2
C14G U15G C18G U55G G68A	≤ -4.2
C14G A21U A52G C85A C118G G128A G141C	≤ -4.2
C14G A22C A52U C96A A97U G117U	≤ -4.2
C14G U53A C54A U61G G62U U146C	≤ -4.2

Variant	polymerase ribozyme fitness (log ratio)
C14G C18U A21G G86C C105U C129A U130C	≤ -4.2
C14G C85G C131A	≤ -4.2
C14G C27G G94A	≤ -4.2
C14G U78A G86A	≤ -4.2
C14G A29C U53A C95U C114U G140A	-3.68
C14G A89U C99A A107C	≤ -4.2
C14G C99G	-3.32
C14G U77G A97U U111C	-4.01
C14U A26U C54U C79U G94A U111G C123U	≤ -4.2
C14G G59C C69A A142G	≤ -4.2
C14G A23C C32U C96U	-4.1
C14U A17U A28G U44A A73G C95A G100U A106G A115G	≤ -4.2
C14G C87U C149A	≤ -4.2
C14G G50A G58C U82C G141C	-4.17
C14G C95G C96G	-4.07
C14G A97U A98G	-2.74
C14G A21U A30U U31C	≤ -4.2
C14G G84A	-2.16
C14U A28U C96G	≤ -4.2
C14G A52G C75U C85U U144C	-3.71
C14G U55G C57U G86C C125G A137U	≤ -4.2
C14G A137U	≤ -4.2
C14G A91U G143U	-3.88
C14G C87G A107G	≤ -4.2

Variant	polymerase ribozyme fitness (log ratio)
C14G A40U A73G U104C	≤ -4.2
C14G U15C C51U G68A G83A U90G C149G	≤ -4.2
C14G A39U G58A U61G C85U C95U A107C G141C U146C	≤ -4.2
C14G C57A C85U C99A C123U	-3.49
C14G G88C C125G	-4.08
C14G U53A C85G U90A A91U C99A C118A A120U	≤ -4.2
C14G G50C A66G C85G A106G	≤ -4.2
C14G A23G A73G G84U A122U	≤ -4.2
C14G G83A U90G G92U U102G C105A C118U A120C U146G	≤ -4.2
C14G U61A C87U C95G U135G A142C	≤ -4.2
C14G A28U U55G A89U C96A G126A G128C G140C	≤ -4.2
C14G C51U C96U	-3.1
C14G C38U G68U G80U A91G C103A U139C	≤ -4.2
C14U A21G A49G	-2.56
C14G A22U A26G A28C U134A	≤ -4.2
C14G C18U G92C	-2.89
C14U A26C G48C U53G C54A C93A U145A U148C	≤ -4.2
C14G G86C	≤ -4.2
C14U A16C C51U A52G C93U C116A A121C	-1.81
C14G A23G G88A	≤ -4.2
C14G A73G C79G A98G G143C	≤ -4.2
C14U A17U A24G A41C C51U U56A C93A A115C	≤ -4.2
C14G C38A A60G U77A U78C C87G C125A U139G	≤ -4.2
C14U A19U U55A	-1.9

Variant	polymerase ribozyme fitness (log ratio)
C14G A22G C54U G70U C95U C96A C114U A137C	≤ -4.2
C14U A40G U56A G59C C76U A121U	-4.02
C14G G83U	-2.05
C14G C69G C96A G124A	-3.69
C14U A17U A19C U44A G68A A73G G86U C96U C149G	≤ -4.2
C14G C51U U61A	-4.06
C14G C93A	-3.68
C14G U56G C57U C63U C72U U151G	≤ -4.2
C14G U31A G68A G86A A91G C108A C118G	≤ -4.2
C14G A91U C93G C125A	≤ -4.2
C14G A28G U31A C32U G34A G42C U55G G94U	≤ -4.2
C14G A40U C43U G46A G50C C85U G112A	≤ -4.2
C14G A24C A60G G62A G65C C87U U145G	≤ -4.2
C14G A26U A30U C75A C93U G141A U148G U151G	≤ -4.2
C14G A21C C54A G67A G94U C123U	≤ -4.2
C14G C85A C95G C103U U146A	≤ -4.2
C14U A21G A29G C85U C116A	-4.2
C14G U82C	-3.65
C14G C85U	-2.1
C14G C36U U45G G59A C95U A97G A98U C125A U139G	-4.03
C14G U31A G136A	-2.23
C14G C76G A89C C93G C95G U127G U151G	≤ -4.2
C14G G133U	≤ -4.2
C14G A73G G88C A98U C99G	≤ -4.2

Variant	polymerase ribozyme fitness (log ratio)
C14G C18U U144C	-2.22
C14U A17C C35G G141C U151A	≤ -4.2
C14G A41U G62C C95U C96A G112U A142U U146A A150G	≤ -4.2
C14G C79A C93G C96A	≤ -4.2
C14G A37C	-3.05
C14U A17G G70C G80A A137U	≤ -4.2
C14G C36U G92C	≤ -4.2
C14G C18U C57U G65A G83A A106C G117U	≤ -4.2
C14G U33C G84U G94A	-4.16
C14G G48C A49G U53A G92U C93U A107U	≤ -4.2
C14G A26U C27G C35A A52C A91G A107G G126U U130A	≤ -4.2
C14G C18U C38U U53C G58A U90G C93G A115C C118U A137U	≤ -4.2
C14U A16C C57G G83U C85U A107G G140C A142C	≤ -4.2
C14G C87U G141A	-2.56
C14G C18U	-1.18
C14U A20C U33A C93G C103G C118U	≤ -4.2
C14G C95U	-1.57
C14G A28G U53A C63U A89C A106U G126A G141A	≤ -4.2
C14G A26G G58U C72U A122G	≤ -4.2
C14G U15G A19C A22C A41G G58C C93U	-3.91
C14G A30U A41C C43U G50C U55G C75G C118U A119C	≤ -4.2
C14G C35U C95U U101A	-3.82
C14G A49G	-2.92
C14G U82A G84A C87U C118G	-3.78

Variant	polymerase ribozyme fitness (log ratio)
C14G A91U A97G	-3.96
C14G C63U G67C U77A C85A G124C	≤ -4.2
C14U A41C C75G G84U C118A	≤ -4.2
C14G C18G U82G G84C	≤ -4.2
C14U A17C C18G A20G G59U C85U A91U C118U G140A	≤ -4.2
C14G U31G	-2.12
C14U A19U C87U C99A	-3.91
C14G A21U A60U C75A U77G A89U C95A	≤ -4.2
C14G A40C C57G	-2.31
C14G A24U	-3.18
C14G A24C	-3.63
C14U A28U A122G G141C	-4.15
C14G C85U C96U A113C A122U G143A	≤ -4.2
C14G U56A C85G G92A	≤ -4.2
C14G C85A C116U A122C	≤ -4.2
C14G C27U G48A C57A A60U G88C A106U	≤ -4.2
C14G G59A A73U C87G	≤ -4.2
C14G A30U U33G A49C A52U C72G A73G C87U U144G	≤ -4.2
C14G A26U G58C A89U G117U A120C C125A	≤ -4.2
C14G A26U G59C G86C G100A G136U U144A	≤ -4.2
C14G A30U U61A G92A C99A	≤ -4.2
C14U A29U C54G G83U G84U C105G U151G	≤ -4.2
C14G C75U G94C A122U G124A	-3.86
C14G C57A G92A C96U A107C G124U	≤ -4.2

Variant	polymerase ribozyme fitness (log ratio)
C14G A24U A28U C43U A73G U82C C103G G136A U146C	≤ -4.2
C14G G25U C36A U55G G65C C75U G141C	≤ -4.2
C14G G25C A47U G50A C93A U102A G124C	≤ -4.2
C14G A22C A39C A52G C75G U82G G140U	≤ -4.2
C14G G59A C87U	-3.82
C14G G83A C96U A110G A142U U148A	≤ -4.2
C14G U33C U56A C85A C99G G117U C123U	-3.91
C14G C35A A60G U130C U134C	≤ -4.2
C14G A40C U55A G81C G126A U139G G140A	≤ -4.2
C14G G65U G67U G133A U135A	≤ -4.2
C14G A30U U61A G92A C99A A115G	≤ -4.2
C14G A40G A73G C85U U139A	≤ -4.2
C14U A24C U53A G67U C108U A150G	≤ -4.2
C14G A106C C118A C123U	-4.16
C14G C96U	-2.21
C14G C32G G141U A147C	≤ -4.2
C14G U15C G84U	-1.26
C14G A21U G59C G94A U101G A113C	≤ -4.2
C14G U148A	-4.14
C14G A40G A41C C54U C85G C99U	≤ -4.2
C14G C32U G48A C103U U127C	≤ -4.2
C14U A28U C51G A97G	≤ -4.2
C14G G50U C95U C96U A115G	-4.1

— the RNAGym collection of RNA variant scans (doi:10.1073/pnas.2313332121)
